Reference: paper doi:10.1101/2022.01.31.478465 (bioRxiv, 2022)

Target: T1, AtPRP40b, recombinant (A. thaliana, UniProt F4JCC1 1-992)
T1 sequence: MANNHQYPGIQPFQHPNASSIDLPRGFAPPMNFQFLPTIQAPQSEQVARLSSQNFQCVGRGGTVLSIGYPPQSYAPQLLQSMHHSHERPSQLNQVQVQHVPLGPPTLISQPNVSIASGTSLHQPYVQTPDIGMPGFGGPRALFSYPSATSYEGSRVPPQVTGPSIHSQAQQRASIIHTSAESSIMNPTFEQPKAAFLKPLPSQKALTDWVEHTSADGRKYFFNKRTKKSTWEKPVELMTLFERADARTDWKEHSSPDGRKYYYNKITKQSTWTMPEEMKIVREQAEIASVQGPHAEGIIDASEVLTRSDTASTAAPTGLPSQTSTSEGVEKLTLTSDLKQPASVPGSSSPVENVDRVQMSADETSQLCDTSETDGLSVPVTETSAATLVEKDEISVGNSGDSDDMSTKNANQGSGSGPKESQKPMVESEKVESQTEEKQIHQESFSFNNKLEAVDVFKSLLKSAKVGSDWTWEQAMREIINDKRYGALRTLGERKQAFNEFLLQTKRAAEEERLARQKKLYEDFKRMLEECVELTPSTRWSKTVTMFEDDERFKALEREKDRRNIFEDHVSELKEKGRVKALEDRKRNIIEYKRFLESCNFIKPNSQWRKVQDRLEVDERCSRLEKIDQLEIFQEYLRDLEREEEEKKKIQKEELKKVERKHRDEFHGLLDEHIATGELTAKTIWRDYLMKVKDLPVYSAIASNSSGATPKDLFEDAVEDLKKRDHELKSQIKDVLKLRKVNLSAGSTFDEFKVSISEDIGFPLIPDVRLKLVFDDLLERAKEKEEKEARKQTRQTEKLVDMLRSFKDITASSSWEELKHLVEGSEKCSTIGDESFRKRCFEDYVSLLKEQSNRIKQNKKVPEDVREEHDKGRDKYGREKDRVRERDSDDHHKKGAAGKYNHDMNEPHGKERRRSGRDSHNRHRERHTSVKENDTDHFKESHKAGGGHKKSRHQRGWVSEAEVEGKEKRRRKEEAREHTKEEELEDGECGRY
Test: pull-down

B1: SERRATE (SE), full length, recombinant (natural protein, A. thaliana, UniProt Q9ZVD0 1-720, looked up)
chain: MADVNLPPSDSVDNRLPEKSTSSSPPPPPPSSSLPQQEQEQDQQQLPLRRERDSRERRDERDIERPPPNRRERDRSPLPPPRRDYKRRPSLSPPPPYRDRRHSPPQRRSPPQKRYRRDDNGYDGRRGSPRGGYGPPDRRFGYDHGGGYDREMGGRPGYGDERPHGRFMGRYQDWEGGRGGYGDASNSGNPQRDGLMSYKQFIQELEDDILPSEAERRYQEYKSEYITTQKRAFFNTHKEEDWLKNKYHPTNLLSVIERRNDLAQKVAKDFLLDLQSGTLDLGPAVTALNKSGRTSEPNSEDEAAGVGKRKRHGMGGAKENELLSAAPKAPSFTSDPKRILTDVEQTQALVRKLDSEKKIEENVLQGSETEKSGREKLHSGSTGPVVIIRGLTSVKGLEGVELLDTLVTYLWRVHGLDYYGKVETNEAKGLRHVRAEGKVSDAKGDENESKFDSHWQERLKGQDPLEVMAAKEKIDAAATEALDPHVRKIRDEKYGWKYGCGAKGCTKLFHAAEFVYKHLKLKHTELVTELTTKVREELYFQNYMNDPNAPGGQPATQQSGPRDRPIRRKPSMENRLRDDRGGRRERDGRANGNDRNDRSEDQQRGDNDGGNPGEVGYDAFGGQGGVHVPPFLSDINPPPMLMPVPGAGPLGPFVPAPPEVAMQMFRDPSGPNPPFEGSGRGGPAPFLLSPAFRQDPRRLRSYQDLDAPEEEVTVIDYRSL
Q: Does B1 bind?
A: binds
